According to patent publication US20150274802A1:

Tests used:
[1] = biological target: type B insulin receptor (UniProt P06213); test: cell-based or functional assay
[2] = biological target: type A insulin receptor (UniProt P06213); test: cell-based or functional assay
[3] = biological target: type A insulin receptor (UniProt P06213); test: competitive binding SPA, [125I]insulin
[4] = biological target: type A insulin receptor (UniProt P06213); test: binding assay

Substance: #31: IGF-2 analog B^2-C^2[K8]-A^2-D^2[R4] (from UniProt P01344 25-91) (ligand)
- potency [1]: 2 fold
- potency [2]: 2 fold

Substance: #48: Cys^B1-Cys^B1 #2* dimer, B^1[C1H5Y16L17O22R29]29:A^1[O9,14,15N18,21] (ligand)
- % receptor activity, phosphorylation assay [2]: 102%
- % receptor activity (binding assay) [3]: 147%

Substance: Cys-Cys^B1 peptide (analog #2* with Cys^B1 disulfide-bonded to free cysteine) (ligand)
- % activity, phosphorylation assay [2]: 23.1%
- % activity (binding assay) [3]: 55.4%

Substance: Insulin analog B^1[H5Y16L17O22R29]29:A^1[O9,14,15N18,21] (ligand)
- % activity (binding assay) [4]: 55%
